Reference: patent US20240010720A1 (IOMX THERAPEUTICS, published 2024)
Where two headings read alike, the source gives them in different places. Values belong to the binder of their own block, whether it stands above or below them.

B1: human IGSF11 (VSIG3) on cells (receptor)
chain: LEVSESPGSIQVARGQPAVLPCTFTTSAALINLNVIWMVTPLSNANQPEQVILYQGGQMFDGAPRFHGRVGFTGTMPATNVSIFINNTQLSDTGTYQCLVNNLPDIGGRNIGVTGLTVLVPPSAPHCQIQGSQDIGSDVILLCSSEEGIPRPTYLWEKLDNTLKLPPTATQDQVQGTVTIRNISALSSGLYQCVASNAIGTSTCLLDLQVISPQPRNIGLIAGAIGTGAVIIIFCIALILGAFFYWRSKNKEEEEEEIPNEIREDDLPPKCSSAKAFHTEISSSDNNTLTSSNAYNSRYWSNNPKVHRNTESVSHFSDLGQSFSFHSGNANIPSIYANGTHLVPGQHKTLVVTANRGSSPQVMSRSNGSVSRKPRPPHTHSYTISHATLERIGAVPVMVPAQSRAGSLV

What was measured:
[1] = target: T1, scFv-Fc-format of antibody A-015; assay: FACS on monocytes (CD14 gate) from PBMC of healthy volunteer A, labelled secondary antibody; x axis IGSF11 signal
T1 construct: scFv genetically fused to mouse IgG2A Fc; also called anti-IGSF11 scFv-Fc (mouse IgG2A)
T1 sequence (VL, as listed by the source): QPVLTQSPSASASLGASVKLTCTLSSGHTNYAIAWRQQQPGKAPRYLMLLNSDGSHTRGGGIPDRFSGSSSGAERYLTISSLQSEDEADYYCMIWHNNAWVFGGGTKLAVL

[2] = target: B1; assay: FACS, DMS 273 cells
[3] = target: T2, recombinant human IGSF11 (VSIG3) extracellular domain (ECD) (human, UniProt Q5DX21 23-241, biotinylated where captured on streptavidin); assay: SPR, IgG1
T2 construct: also called biotinylated recombinant ECD-IGSF11; IGSF11 (ECD domain)
T2 sequence: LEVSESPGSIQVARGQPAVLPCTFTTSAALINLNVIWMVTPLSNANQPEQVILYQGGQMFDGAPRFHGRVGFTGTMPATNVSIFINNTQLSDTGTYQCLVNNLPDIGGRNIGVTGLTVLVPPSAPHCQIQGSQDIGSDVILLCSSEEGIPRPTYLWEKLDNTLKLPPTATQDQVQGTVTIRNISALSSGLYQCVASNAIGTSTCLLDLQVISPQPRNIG

[4] = target: T3, IGSF11 ECD fused to murine-Fc (human; mouse, UniProt Q5DX21 23-241); assay: ELISA: IgG titrated on coated murine-Fc fusion of IGSF11 ECD; x axis IgG nM, y axis absorption per legend
T3 construct: also called Fc-fusion IGSF11 ECD; full-length ECD of IGSF11; not shown: murine Fc
T3 sequence: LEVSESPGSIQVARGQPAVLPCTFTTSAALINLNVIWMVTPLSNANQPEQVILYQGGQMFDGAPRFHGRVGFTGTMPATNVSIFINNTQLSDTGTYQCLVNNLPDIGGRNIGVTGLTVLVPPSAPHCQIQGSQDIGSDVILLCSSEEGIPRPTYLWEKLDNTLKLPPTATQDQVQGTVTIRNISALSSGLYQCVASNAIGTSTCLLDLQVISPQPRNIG

[5] = target: T3, IGSF11 ECD fused to murine-Fc; assay: ELISA, IgG
Source text: Expi293 cells (ThermoFisher) were transiently transfected with DNA sequences encoding the applicable IGSF11 domain-mFc fusions according to the manufacturer's instructions, and cultured under conditions suitable to the IGSF11 domain fusion. Cell supernatants were harvested 5 days post transfection and the expressed Fc-protein purified via Protein A affinity chromatography (GE Healthcare). IGSF11 domain Fc-fusion proteins were re-buffered into PBS pH7.4. […] The surface was blocked with 2% (w/v) skim milk powder in PBST. After three wash cycles with PBST, a dilution series of IgG-format ABPs was transferred to the immobilized the Fc-fusion IGSF11 ECD or the IGSF11 domains and incubated for 1 h. After removing all unbound antibodies by 3 wash cycles with PBST, bound IgG ABPs were detected with a goat anti-human IgG antibody conjugated with horseradish peroxidase. After three wash cycles with PBST the ELISA was developed with TMB substrate.

[6] = target: T4, His-tagged extracellular domain (ECD) of human IGSF11 (VSIG3) (human, UniProt Q5DX21 23-241); assay: ELISA EC50 grade, IgG1
T4 construct: partly bought (SinoBiological 13094-H08H); also called IGSF11-HIS; HIS-IGSF11; not shown: HIS6 tag
T4 sequence: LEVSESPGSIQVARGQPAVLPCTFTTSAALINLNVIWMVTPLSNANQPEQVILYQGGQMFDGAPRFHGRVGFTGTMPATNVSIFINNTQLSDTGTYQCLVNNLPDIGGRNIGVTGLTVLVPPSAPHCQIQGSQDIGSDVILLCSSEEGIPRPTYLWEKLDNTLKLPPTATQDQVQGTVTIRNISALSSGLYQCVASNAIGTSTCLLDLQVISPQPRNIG

[7] = target: B1; assay: FACS, HEK cells expressing IGSF11
[8] = target: T4, His-tagged extracellular domain (ECD) …; assay: ELISA: IgG1-format antibody titrated on coated His-tagged IGSF11; x axis nM IgG, y axis absorbance per legend
[9] = target: T2, recombinant human IGSF11 (VSIG3) …; assay: SPR, IgG1; remark: listed apart in the source
[10] = target: T4, His-tagged extracellular domain (ECD) …; assay: blocking ELISA: antibody pre-incubated with His-tagged IGSF11 ECD, complexes added to immobilised VSIR-Fc; y axis % remaining IGSF11 binding to VSIR, x axis nM IgG per legend
[11] = target: B1; assay: FACS, IgG1-format antibodies; CL-11 cells (C), a line that does not express IGSF11 (specificity control), IGSF11 siRNA (KD)
[12] = target: B1; assay: FACS, IgG1-format antibodies; M579-A2-luc cells (M) treated with scrambled control siRNA (SC)
[13] = target: B1; assay: FACS, IgG1-format antibodies; DMS 273 cells (D) treated with scrambled control siRNA (SC)
[14] = target: B1; assay: FACS, IgG1-format antibodies; DMS 273 cells (D) treated with IGSF11 siRNA (KD)
[15] = target: B1; assay: FACS, IgG1-format antibodies; CL-11 cells (C), a line that does not express IGSF11 (specificity control), scrambled control siRNA (SC)
[16] = target: B1; assay: FACS, IgG1-format antibodies; M579-A2-luc cells (M) treated with IGSF11 siRNA (KD)
[17] = target: T4, His-tagged extracellular domain (ECD) …; assay: blocking ELISA: antibody pre-incubated with His-tagged IGSF11 ECD, complexes added to immobilised VSIR-Fc; y axis % remaining IGSF11 binding to VSIR, x axis nM IgG per legend; remark: listed apart in the source
[18] = target: T4, His-tagged extracellular domain (ECD) …; assay: ELISA, IgG1

- EC50 (read off the curve) [8]: ~0.02 nM
- IC50 (read off the curve) [10]: ~5 nM
B5: B-004 (chain-swapped IgG1) (antibody, V domains shown)
VH: EVQLLESGGGLIQPGGSLRLSCAVSGFTVSSNYMSWVRQAPGKGLEWVSVIYSGGSTYYADSVKGRFTISRDNSKNTLYLQMNSLRAEDTAVYYCARGNPYYYGDLQVNFDYWGQGTLVTVSS
VL: QAVVTQEPSLTVSPGGTVTLTCASSTGAVTSGYYPNWFQQKPGQAPRPLIYSTSNKHSWTPARFSGSLLGGKAALTLSGVQPDDEAEYYCLLYYGGDWVFGGGTKLTVL
notes: human IgG1 format; also called B4

- binding result [18]: binds
B6: A-037 (IgG1 format) (antibody, V domains shown)
VH: QVQLVQSGAEVKKPGASVKVSCKASGYTFTGYYMHWVRQAPGQGLEWMGWINPNSGNTGYAQKFQGRVTMTRNTSISTAYMELSSLRSEDTAVYYCARGGQQQLVLDDYWGQGTLVTVSS
VL: NFMLTQPHSVSESPGKTVTISCTGSSGSIASNYVQWYQQRPGSAPTTVIYEDNQRPSGVPDRFSGSIDSSSNSASLTISGLKTEDEADYYCQSYDSSNQRVFGGGTKLTVL
notes: human IgG1 format

- binding result [18]: binds
B7: A-019 (IgG1 format) (antibody, V domains shown)
VH: QVQLVQSGAEVKKPGASVKVSCKASGYTFTGYYMHWVRQAPGQGLEWMGWINPNSGNTGYAQKFQGRVTMTRNTSISTAYMELSSLRSEDTAVYYCARGGQQQLVLDDYWGQGTLVTVSS
VL: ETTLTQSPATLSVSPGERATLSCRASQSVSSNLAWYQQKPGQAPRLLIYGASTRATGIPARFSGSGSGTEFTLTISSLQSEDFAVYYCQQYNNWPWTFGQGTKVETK
notes: human IgG1 format

Second part, the binder before the results:

Binder: B1
- binding result [1]: binds

B2: A-024 (IgG1 format) (antibody, V domains shown)
VH: QMQLVQSGAEVKKPGSSVKVSCKASGGTFSSYAISWVRQAPGQGLEWMGWISAYNGNTNYAQKLQGRVTMTTDTSTSTAYMELRSLRSDDTAVYYCASLGSYGYTGAFDIWGQGTMATVSS
VL: QSALTQPASVSGSPGQSITISCTGTSSDVGGYNYVSWYQQHPGKAPKLMIYEVSNRPSGVSNRFSGSKSGNTASLTISGLQAEDEADYYCSSYTSSSTLVVFGGGTKLTVL
notes: also called A-024-like ABP
- EC50 [2]: < 10 nM
- Kd [3]: > 500 nM
- EC50 (read off the curve) [4]: ~0.4 nM
- EC50 [5]: < 1 nM
- EC50 [6]: 0.02 to 0.05 nM

B3: B-002 (chain-swapped IgG1) (antibody, V domains shown)
VH: EVQLVESGGGLIQPGGSLRLSCAASGFTVSSNYMSWVRQAPGKGLEWVSVIYSGGSTYYADSVKGRFTISRDNSKNTLYLQMNSLRAEDTAVYYCARGNPYYYGDLQVNFDYWGQGTLVTVSS
VL: QAVVTQEPSLTVSPGGTVTLTCASSTGAVTSGYYPNWFQQKPGQAPRALIYSTSNKHSWTPARFSGSLLGGKAALTLSGVQPEDEAEYYCLLYYGGAWVFGGGTKLTVL
notes: human IgG1 format; also called B2
- EC50 [7]: 10 to 50 nM
- EC50 (read off the curve) [8]: ~0.01 nM
- EC50 [2]: > 50 nM
- Kd [9]: 100 to 250 nM
- IC50 (read off the curve) [10]: ~4 nM
- percentage binding (FACS heat-map) [11]: 4.54%
- percentage binding (FACS heat-map) [12]: 70.7%
- percentage binding (FACS heat-map) [13]: 80.1%
- percentage binding (FACS heat-map) [14]: 8.68%
- percentage binding (FACS heat-map) [15]: 3%
- percentage binding (FACS heat-map) [16]: 2.77%

B4: B-001 (chain-swapped IgG1) (antibody, V domains shown)
VH: EVQLLESGGGLIQPGGSLRLSCAVSGFTVSSNYMSWVRQAPGKGLEWVSVIYSGGSTYYADSVKGRFTISRDNSKNTLYLQMNSLRAEDTAVYYCARGNPYYYGDLQVNFDYWGQGTLVTVSS
VL: QAVVTQEPSLTVSPGGTVTLTCASSTGAVTSAYYPNWFQQKPGQAPRALIYSTSNKHSWTPARFSGSLLGGKAALTLSGVQPEDEADYYCLLYYGGAWVFGGGTKLTVL
notes: human IgG1 format; also called B1
- EC50 [7]: 10 to 50 nM
- Kd [9]: 250 to 500 nM
- IC50 (read off the curve) [17]: ~2 nM
